Here are results for 1 molecule from PMC8528823 (2021).

This experiment deals with SARS-CoV-2 WT RBD (SARS-CoV-2, UniProt P0DTC2 319-541). The experiment in a line: SPR.

B1: Mouse Fc (mFc) tagged mink ACE2 (Fc fusion)
chain: QSTTEDLAKTFLEKFNYEAEELSYQNSLASWNYNTNITDENIQKMNIAGAKWSAFYEEESQHAKTYPLEEIQDPIIKRQLRALQQSGSSVLSADKRERLNTILNAMSTIYSTGKACNPNNPQECLLLEPGLDDIMENSKDYNERLWAWEGWRSEVGKQLRPLYEEYVALKNEMARANNYEDYGDYWRGDYEEEWADGYNYSRNQLIEDVEHTFTQIKPLYEHLHAYVRAKLMDAYPSRISPTGCLPAHLLGDMWGRFWTNLYPLMVPFGQKPNIDVTDAMVNQSWDARRIFKEAEKFFVSVGLPNMTEGFWQNSMLTEPGDNRKVVCHPTAWDLGKHDFRIKMCTKVTMDDFLTAHHEMGHIQYDMAYAAQPFLLRNGANEGFHEAVGEIMSLSAATPNHLKNIGLLPPDFSEDSETDINFLLKQALTIVGTLPFTYMLEKWRWMVFKGEIPKEQWMQKWWEMKRDIVGVVEPLPHDETYCDPAALFHVANDYSFIRYYTRTIYQFQFQEALCQIAKHEGPLYKCDISNSREAGQKLHEMLSLGRSKPWTFALERVVGAKTMDVRPLLNYFEPLFTWLKEQNRNSFVGWNTDWSPYADQSIKVRISLKSALGEKAYEWNDNEMYFFQSSIAYAMREYFSKVKKQTIPFVDKDVRVSDLKPRISFNFIVTSPENMSDIIPRADVEEAIRKSRGRINDAFRLDDNSLEFLGIQPTLEPPYQPPVT
Take B1: the koff (commonly the first-order rate constant of dissociation) worked out at 1.65 s⁻¹.
